Substrate in this series: NC(=O)C[C@H](N)C(=O)O
Put plainly: ammonia release by direct Nesslerization; Lineweaver-Burk plot. It counts as biochemical, Thermococcus sibiricus. The settings on record: Tris-HCl 0.05 M, pH 9.0, 90 °C, printed substrate range 20-250 μM.

B1: TsA (L-asparaginase from Thermococcus sibiricus) (Thermococcus sibiricus MM 739) (protein)
chain: MKKLLIIGTGGTIASAKTEQGYKSVLKIDEILKLAKIKLENGYKIDSTNIMNIDSTLIHPEDWEIIAKEVFKALDDYDGIIITHGTDTLAYTASMLSFMIKNPNKPIVLTGSMLPITENGSDAPRNIRTAIKFAMEDVAGVFVAFMDKIMLGCRTSKVRTLGLNAFMSINYPDVAYVKGEKILYNIPKEKFQPNGSPELDTKYEPRVVVLRVTPGLGGEIIDAVLDAGYKGIVLEGYGAGGLPYRKSNLLSKIKEITPKIPVIMTTQALYDGVDMRKYEVGRKALETGIIPAKDMTKEATITKLMWALGHTKDVEKIREIMHTNYVNEIKS
notes: full-length, 331 residues, codon-optimized synthetic gene in pET-28a(+) NheI/SalI, E. coli BL21 (DE3); SP-Sepharose ion exchange
With B1, the Michaelis-Menten constant (Km) is 2800 µM.

One may read the Km as the substrate concentration at which the rate is half of its maximum.

For the origin of these results see paper PMC8470970, “A Novel L-Asparaginase from Hyperthermophilic Archaeon Thermococcus sibiricus: Heterologous Expression and Characterization for Biotechnology Application” (International Journal of Molecular Sciences, 2021).
